Reference: the DeepSol protein solubility set

Test: soluble on expression in E. coli; label from the status in PepcDB or PDB records

Row | Sequence | soluble on expression in E. coli
1 | MSLTPRVNSGGAVVADAYGRPLKDLRIAVTPECNLDCFFCHMEGATESGPMRPGSWSPVLSVEDYDIIGEAASRLGVDSFKLTGGEPLIRGDVDKIVAVLARYGEVSMTTNGILLPLKASSLKRAGLARVNVSLHSISEEVYEKITRRRAVKLALKGVEAALKAGLRVKVNMVLLRGLNEGEFWRLLRLAEDLGFDLQVIEVHPAGRGRKVLSSFRRPIDVVEERLSSMAVAVETGRLHNRRVYRLPSGVRVYLVDPVENPVFCMGCYRVRLTWDGRLLPCIYWKGPYPSVAEALKRGGSREEKVWRVMKILLEANALRRPTYLFRLHDGQEPQAPSTGRGLRLTLPGKAKAERLAYSTLKAPLIEG | not soluble
2 | MSLTQEFIDKVSSYLTPDVDIAPISQGAEAIVFTTTTHPYLPRAKDSHQKYIIKYRPPKRYRHPQIDQALTKHRTLNESRLLAKLYLIPGLCVPQLIACDPYNGFIWLEFLGEDLPGGHGFSNLKNFLWMHDQDPYSDLVATTLRKVGRQIGLLHWNDYCHGDLTSSNIVLVRDGARWTPHLIDFGLGSVSNLVEDKGVDLYVLERAILSTHSKHAEKYNAWIMEGFEEVYREQGAKGAKKLKEVTKRFEEVRLRGRKRSMLGEGHHHHHH | not soluble
3 | MSLTQHTLWLLRFTYKQLKEKLTVSDSKKLFHEQFPYVIPGLYKRIVDEMLVELNLLNHQNEFIQDDLFCVGLTETFKELTKGYKPEEHLRVLFESLCNSSNFEPKKIKEASKKTLEVYKDKSLKEISILLKQKSDSNLYSSRIMNLGIYLIIANATDFKDIKDPEKNKIISDIINKLNLSFNKAEKDIGIYKSSILKMEQAKELLQEAKIKDKKEKEGHHHHHH | not soluble
4 | MSLTRPVTLSEPHFSQHTLNKYASLMAQGNGYLGLRASHEEDYTRQTRGMYLAGLYHRAGKGEINELVNLPDILGMEIAINGEVFSLSHEAWQRELDFASGELRRNVVWRTSNGAGYTIASRRFVSADQLPLIALEITITPLDADASVLISTGIDATQTNHGRQHLDETQVRVFGQHLMQGIYTTQDGRSDVAISCCCKVSGDVQQCYTAKERRLLQHTSAQLHAGETVTLQKLVWIDWRDDRQAVLDEWGSASLRQLEICAQQSYDQLLAASTENWRQWWQKRRITVNGGDAHDQQALDYALYHLRIMTPAHDERSSIAAKGLTGEGYKGHVFWDTEVFLLPFHLFSDPTVARSLLRYRWHNLPGAQEKARRSGWQGALFPWESARSGEEETPEFAAINIRTGLRQKVASAQAEHHLVADIAWAVIQYWQTTGDESFIAHEGMALLLETAKFWISRAVRVNDRLEIHDVIGPDEYTEHVNNNAFTSYMARYNVQQALNIARQFGCSDDAFIHRAEMFLKELWMPETQPDGVLPQDDSFMAKPAINLAKYKAAAGKQTILLDYSRAEVNEMQILKQADVVMLNYMLPEQFSAVSCLANLQFYEPRTIHDSSLSKAIHGIVAARCGLLTQSYQFWREGTEIDLGADPHSCDDGIHAAATGAIWLGAIQGFAGVSVRDGELHLNPALPEQWQQLSFPLFWQGCELQVTLDAQRIAIRTSAPVSLRLNGQLISVAEESVFCLGDFILPFNGTATTHQEDEEGHHHHHH | soluble
5 | MSLTRQMNILLVEDDDLDAMMIKRAMAQVAPDAHLIRATDGVEALEIVQSNRVEDPYFILLDVNMPRMNGHEFLKELRASSEHSDTMVFMFTTSESARDIARAYQERANGYIVKPHGKAAMNSILDTLQRYWTTCEEGHHHHHH | soluble
6 | MSLTTLKCVMQWTWRKTPERTIEVHKKNVNALKLLLIGSPGREQSYTPRDKRSNMHFLKKLGDFQDLEHTVDALKDWHTREKADAVLGLGDMLGLPGATTVRDERFQKKWHDIFIKDAGLDIPWLMTLGDADSVLSPSSQIRYHYSVQQKNWHMPNDYYTVNFKFGANLTLANGMFEETAFNATVIAINTWDLFVGNPVANNMASWTNKLWWLSEQLYQATQKNSSWIIVMGHHPMLSTGTEGEQARLQNIDDLSKSRRSRGLESFLINTLFMHYQVDAYVSGHDHLMEYNSITDVDRNVTVEGHHHHHH | not soluble
7 | MSLTTRLADIAAQAGVSEATVSRVLNGKPGVAATTRQSVLAALDVLGYERPVRLRQRSEGLVGLITPELENPIFPALAQVIGQALTRQGYTPVLATQTPGGSTEDELTEMLVDRGVAGIIFVSGLHADTSADMQRYDQLRAQGVPFVLVDGFSPKVQAPFISPDDRAAMTLAVTHLVSLGHTRIGLALGPKRFVPVQRKIEGFVRSVQEQLGLSPDDVERELVQHSLYTLEGGQAAATALMDRDCTAVVCASDMMALGAIRAARQRGLDVPKDISVVGFDDSPLIAFTDPPLTTIRKPVPAMGQAAVRTLLEEIGGTPAPHSEFVFMPELVVRGSTASAPGDRNRPEGHHHHHH | soluble
8 | MSLTTRVIALDLDGTLLTPKKTLLPSSIEALARAREAGYQLIIVTGRHHVAIHPFYQALALDTPAICCNGTYLYDYHAKTVLEADPMPVIKALQLIEMLNEHHIHGLMYVDDAMVYEHPTGHVIRTSNWAQTLPPEQRPTFTQVASLAETAQQVNAVWKFALTHDDLPQLQHFGKHVEHELGLECEWSWHDQVDIARGGNSKGKRLTKWVEAQGWSMENVVAFGDNFNDISMLEAAGTGVAMGNADDAVKARANIVIGDNTTDSIAQFIYSHLIEGHHHHHH | soluble
9 | MSLTVIITGASSGIGAGLAKSFAADGHLVIACGRDASRLAALQQLSPNISVRLFDMTDRDACRQALTGCFADLIILCAGTCEYLDHGQVDAALVERVMATNFLGPVNCLAALQTQLEAGDRVVLVSSMAHWLPFPRAEAYGASKAALTWFANSLRLDWEPKGVAVTVVSPGFVDTPLTRKNDFAMPGRVSVDRAVAAIRHGLAKGKNHIAFPTGFSLALRLLASLPSGIQRLLLRRMVRSEGHHHHHH | soluble
10 | MSLTVRFTESVSKQDLDALFEWAKASYGAESCWKTLYLNGLPLGNLSPEWVERVKKDWEAGCSESSDGIFLNADGWPDMGGRLQHLALGWHCAGLLDGWRNECFDLTDGGGNPLFTLERAAFRPFGLLSRAVHLNGLTESDGRWHFWIGRRSPHKAVDPNKLDNTAAGGVSGGEMPSEAVCRESSEEAGLDKTLLPLIRPVSQLHSLRSVSRGVHNEILYVFDAVLPETFLPENQDGEVAGFEKMDIGGLLDAMLSGNMMHDAQLVTLDAFCRYGLIDAAHPLSEWLDGIREGHHHHHH | not soluble
11 | MSLTVRLRPHHLLCMLTYIGKGYTSGFVENYDRVAFRLNAGEDIELVEGADDVCEGLLCESHAHCFNDGIVQRDETARLSVSTLLGETLIAGKRLRVTPDFLAKMRLAFAAGDIRQACRGCQWIKLCDRIAASGFAGVKIGVPSQVVPKDATRHPMLRPKYGPSGRKLEGHHHHHH | not soluble
12 | MSLTVSFVHLRLHTEFSLVDGLVRVKPLAKAVAGLGMPAVAVTDQSNMCSLVKFYKTAMGAGIKPICGADIWLASREEDGPLSRLSLLAMNAKGYRNLTELISRGWSEGQRNGEIIIERDWVKEAAEGLIALSAAKEGEIGHALLDGEEAKAEALLREWMEVFPERFYVEVQRTSRVNDEEHLHAAVALASRCNAPLVATNDVRFIKQEDFEAHETRVCIGEGRTLDDPRRPRTYSDQQYLKSPAEMAELFSDLPEALENTVEIAKRCNIEVQLGKYFLPDFPTPNGMGIDDYLRHASFEGLEERLEVLLPKDTPDYEAKRQVYVDRLNFELDIIIQMGFPGYFLIVMDFIKWAKNNGVPVGPGRGSGAGSLVAYVLKITDLDPLAYDLLFERFLNPERISMPDFDVDFCMEGRDRVIDYVADAYGRNAVSQIITFGTMAAKAVVRDVARVQGKSYGLADRLSKMIPFEVGMTLDKAYEQEEMLRDFLKSDEEAAEIWEMALKLEGITRGTGKHAGGVVIAPTKLTDFSPIACDEEGGGLVTQFDKDDVEAAGLVKFDFLGLRTLTIIKWAMEIINREQAKKGLEPVNIDFIPLDDKPTYSLLQKAETTAVFQLESRGMKELIKKLKPDCLEDLIALVALFRPGPLQSGMVDDFINRKHGRAELSYPHPDYQYAGLEPVLKPTYGIILYQEQVMQIAQVMAGYTLGGADMLRRAMGKKKPEEMAKQRGGFIEGCKNNGEGHHHHHH | not soluble
13 | MSLVERARLAEGGGWDCHFHVFDASRYTLAAGSAYQPEDASLAAFRGVCRARGIGRAVLVHPSVYGADHSSYEDALAANGDWLRGVAVVYPDEATTPDARIEHWDLLGTAGTRINRLFPGAPQHPERIVERVKPFGWHVQVLTDIVEDIGLVRRIAARDVPVVVDHFGHHPHAQLLRSAGWQDLIALVREGAAWVKLSAPYRVGAQGPAWPGAQALVDQLVQANPRQLVWGSDWPHPPDHRHPFPAPDQAAIGATIAQWLPDAQLRRQVMELNPLRLYGGTRAAGREGHHHHHH | soluble
14 | MSLVKAISSNLGYPRLGEKREWKRALEKFWNGAISEEELLAETKALRLHALKKQQEKGIDLIPVGDFSFYDQVLDTSVTFGIIPKRFQHDGGKVSLNTYFDIARGKSDAVASEMTKWFNTNYHYIVPELADADPKVLDNRALYYYEEAKKELGIEGKPVLVGPVTYLKLGKGNDAENFEALLDKFIPAYVEILKELERAGAKWVQIDEPYLATSFDKSEIKLFEKVYQAFQTAVPNLKIELQTYFESLDYYEEVVNLPVAAIGIDFVHDHGDSLEALKAHGFPEDKYLAAGVIDGRNVWRSDLDAKLSLLTEIADYVTDGKLIVQPSNSLLHVPVTKLSEPDLDEVILGGLSFADQKLDEIAILTKALTDGAESVTAELEDARAAVTALNESSHRNNLEVQEAIANLGNVRVDRELPFAERIKLQHAWLNLPLFPTTTIGSFPQSPEVRKTRADWLKGNITDAEYNAFIEKETARWIKIQEELDIDVLVHGEFERTDMVEYFGQKLAGFQATKFGWVQSYGSRAVRPPLIYGDVAFTEEITVKESVYAQSLTKRPVKGMLTAPVTIINWSFVRDDVPESVVANQVGLALRKEVEALERNGIKVIQVDEPALREGLPLKQARWEKYLNDAVYSFKLTTASVQNDTQIHTHMCYSDFDDIIDTISALDADVISIETSRSHGEIISTFEEVTYDKEIGLGVYDIHSPRVPTVTEIQDNIRRALRAIDAKQFWINPDCGLKTRKEPETIAALQDMIKATKEVRAEYQVLEKEGHHHHHH | soluble
15 | MSLVMSGEKMKVIIVEDEFLAQQELSWLINTHSQMEIVGSFDDGLDVLKFLQHNKVDAIFLDINIPSLDGVLLAQNISQFAHKPFIVFITAWKEHAVEAFELEAFDYILKPYQESRIINMLQKLTTAWEQQNNAAEGHHHHHH | soluble
16 | MSLVNDITYGREAEVWPRDYSMLARRIQFLRFNDYPIKLVSSNGHSIIGYISKFNQKENMILASDEAKGNNRVEVKLESIASLEELLVGKDFTTRLIVGDVFNNQPCPPTKKDFFSICNKCFKQGIGIKVHMLDGRILTGKTTGVNACQVGIIKSNGNHMQIMFDWVSRITSSDYSGEGHHHHHH | soluble
17 | MSLVTLGEGFEKARLTRFLEKFGGNEGSQFLYLKDYGHFYYQEEGEDQVLFGFQMKFNKCFVLADPIGQREKWTAATLAFMDQADLLGYQLVFYRISEEYVMNLHDCGFEFMKVGEEGLIQFDEPSTVNQTAWTETVTEKIAAEAADFQFEFYPETISDALYQELERVSADWSRNQKERYFIGGRLDPEYLKCSSVGLVRQKQTVIGFITGKEMEKGKSISYDLLRIRSDAPAFTREYLFTHFIETYQQQGYQLIDIGMAPLANVGESKYSFLKERFVNIFYKYSYQIYAFQDTRKRKEQYVTSWQPRYFAYPKRTSVLFAFVQLSLLITKGRHQSVSLVEEAMTEIEGHHHHHH | soluble
